This data set deals with the molecule itself.

These results are taken from article PMC5793033 (ACS Omega, 2018).

B1: NgDapB (4-hydroxy-tetrahydrodipicolinate reductase from Neisseria gonorrhoeae) (enzyme, UniProt B4RR35 1-269, looked up)
chain: MIPLKIAIAGANGRMGRVLVEAVNNHPDTVLSGALEHSGSEALGLDAGYAVGLKTGIAISDDVDAVLAQSDVLIDFTRPEPTLKHLQKCVEKQVNIIIGTTGFDDAGKAAIRAAAEKTGIVFAANFSVGVNLTFHILDTVARVLNEGYDIEIIEGHHRHKVDAPSGTALRMGEVIAGALGRDLKQCAVYGREGHTGPRDPSTIGFATVRAGDIVGDHTALFATDGERVEITHKAGSRMTFAAGAVRAAVWVNGKTGLYDMQDVLGLNNR
Usually stoichiometry N stands for the number of molecules, sites or subunits per partner or assembly. With B1, the “stoichiometry N” value came to 4.
